{
  "source": "paper PMC9638898",
  "tested_on": "en-10C-R4 (engrailed homeodomain-ligase 10C-tetra-arginine) (artificial fusion)",
  "assay": "fluorescence anisotropy",
  "settings": "20 mM HEPES pH 7.5, 150 mM NaCl, 100 uM 2-mercaptoethanol, 120 uM ZnCl2, 100 ug/ml BSA, 24 C, 90 min",
  "note": "pKd: −log10 of the molar value.",
  "data": [
    {"sequence": "GUUCAGAGUUCUACAGUCACUAACGUUCGGGGAACCCAGGUGUUGGUCUUUGACGUAGAGUAUAAGA / TGGGTTCCCCGAACGT [RNA/DNA duplex (ligated product RNA + FAM-DNA splint #2)]", "values": [
      {"measurement": "pKd", "value": 6.34}
    ]}
  ]
}
